Assay [1] has as its target α-galactosidase RhGal36A (Roseburia hominis A2-183). In words: native gel or EMSA; native-PAGE on 4-15% Mini-PROTEAN TGX precast gels, 30 min at 150 V, Native PAGE marker; size of the oligomer from the band's apparent mass against the monomer's mass.
Assay [2] deals with β-1,4 mannan-oligosaccharide phosphorylase RhMOP130A (Roseburia hominis A2-183). Described as above.

On to α-galactosidase RhGal36A (enzyme), for which the stoichiometry N in assay [1] came to 4.
As for “β-1,4 mannan-oligosaccharide phosphorylase RhMOP130A (enzyme)”, the stoichiometry N in assay [2] worked out at 6.

The values are drawn from paper PMC9784577, “Cross-Feeding and Enzymatic Catabolism for Mannan-Oligosaccharide Utilization by the Butyrate-Producing Gut Bacterium Roseburia hominis A2-183” (Microorganisms, 2022).
